Experimental data: the supplement of paper PMC6757056
± gives the standard deviation of the averaged measurements.

B1: library; a variant is named by its letters at N, in order (parent)
chain: GCUGUCACCGGUGUAUUACCCUAGUGGUCGACCGGUCUGAUGAGUCUNNNNNNAGACGAAACAGC

Legend:
hypoxanthine [1] = variants of: B1; test: normalized RNA/DNA level with ligand (relative to sTRSVctl = 100) (log10 (% of sTRSVctl)); ligand: hypoxanthine (xanthine aptamer); higher = less ribozyme self-cleavage, higher mRNA level; settings: ligand concentration (+) RNA-Seq: 5 mM, HEK293T, reporter: mCherry (pCS4076), ligand present: yes
Outline: (§1)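 Ribozyme switch library plasmids with mCherry reporters (eGFP in certain ligand experiments) went into HEK293T cells at 4 µg per 6-well well. Where ligand was used, it was applied 1 h before transfection, and total RNA was extracted with EDTA 72 h later for reverse transcription, amplification, barcoding and sequencing. RNA level is the RNA-to-DNA read ratio normalized to a spiked-in non-cleaving sequence or to the leading sequences, then scaled and log-transformed. Scaling was ×100 with log10, the leading set comprised 25 sequences, and the cutoff was ≥100 DNA reads.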

hypoxanthine [2] = variants of: B1; test: normalized RNA/DNA level without ligand (relative to sTRSVctl = 100) (log10 (% of sTRSVctl)); ligand: hypoxanthine (xanthine aptamer); higher = less ribozyme self-cleavage, higher mRNA level; settings: HEK293T, reporter: mCherry (pCS4076), ligand present: no
Outline: as §1

Variant | normalized RNA/DNA level with ligand (log10) (hypoxanthine [1]) | normalized RNA/DNA level without ligand (log10) (hypoxanthine [2])
CGGUCC | 2 ± 0.059 | 1.88 ± 0.066
CGGUCU | 1.95 ± 0.034 | 1.89 ± 0.048
CGGUCA | 2.011 ± 0.012 | 1.8 ± 0.026
CGGUCG | 1.9971 ± 7.8e-05 | 1.87 ± 0.023
UGGCGC | 2 ± 0.04 | 2 ± 0.027
UGGCGG | 1.97 ± 0.14 | 1.69 ± 0.024
UGGCGU | 1.961 ± 0.015 | 1.68 ± 0.064
AGCUCU | 1.96 ± 0.033 | 1.89 ± 0.04
AGCUCA | 1.998 ± 0.00082 | 1.895 ± 0.011
AGCUCC | 1.97 ± 0.14 | 1.95 ± 0.034
CGGAUG | 1.993 ± 0.011 | 1.75 ± 0.028
CGGAUC | 2.018 ± 0.0066 | 1.92 ± 0.028
CGGAUA | 1.87 ± 0.041 | 1.51 ± 0.085
GGCUUU | 2.025 ± 0.0095 | 1.982 ± 0.006
GGCUUG | 1.93 ± 0.071 | 1.66 ± 0.04
GGCUUC | 1.99 ± 0.03 | 1.98 ± 0.041
GGCUUA | 1.967 ± 0.014 | 1.88 ± 0.025
CGGUAC | 1.88 ± 0.03 | 1.54 ± 0.084
UGCUAG | 1.94 ± 0.025 | 1.658 ± 0.0069
UGCUAC | 1.937 ± 0.0075 | 1.847 ± 0.014
UGCUAA | 1.92 ± 0.066 | 1.832 ± 0.0053
GGGUUC | 1.95 ± 0.053 | 1.91 ± 0.095
GGGUUU | 1.951 ± 0.015 | 1.951 ± 0.0082
GGGAAC | 1.964 ± 0.016 | 1.724 ± 0.01
CGCUAC | 1.86 ± 0.041 | 1.74 ± 0.074
CGCUAU | 1.91 ± 0.092 | 1.78 ± 0.028
CGCUAA | 1.91 ± 0.061 | 1.71 ± 0.028
CGGAAC | 1.85 ± 0.026 | 1.51 ± 0.072
CGGGCG | 1.973 ± 0.012 | 1.76 ± 0.024
